Values joined by “and” are separate entries in the source; they are usually repeats but may differ in a detail not shown here. Equal entries are not always repeated.
Settings: whole UniProt chain shown
[1] = Bos taurus, pH 7, 25 °C, GdnHCl, Absorbance, MOPS 30 mM, reversible: yes
[2] = Bos taurus, pH 7, 25 °C, GdnHCl, Fluorescence, MOPS 30 mM, reversible: yes
[3] = Bos taurus, pH 7, 25 °C, GdnSCN, Fluorescence, MOPS 30 mM, reversible: YES
[4] = Bos taurus, pH 7.2, 25 °C, Urea, CD, Phosphate 20 mM, reversible: yes
[5] = Bos taurus, pH 7.4, Thermal, DSC, sodium phosphate 50 mM, reversible: yes
[6] = Bos taurus, pH 7.4, 23 °C, GdnHCl, CD, Sodium phosphate 200 mM, reversible: yes
[7] = Bos taurus, pH 7.5, 25 °C, Urea, CD, Tris-HCl 20 mM, reversible: yes
[8] = Bos taurus, pH 9, 25 °C, Urea, CD, Tris-HCl 20 mM, reversible: yes
[9] = Bacillus subtilis (strain 168), pH 6, 27 °C, Thermal, CD, sodium phosphate 50 mM, reversible: yes

B1: Serine protease 1 wild type, P00760 (protein)
chain: MKTFIFLALLGAAVAFPVDDDDKIVGGYTCGANTVPYQVSLNSGYHFCGGSLINSQWVVSAAHCYKSGIQVRLGEDNINVVEGNEQFISASKSIVHPSYNSNTLNNDIMLIKLKSAASLNSRVASISLPTSCASAGTQCLISGWGNTKSSGTSYPDVLKCLKAPILSDSSCKSAYPGQITSNMFCAGYLEGGKDSCQGDSGGPVVCSGKLQGIVSWGSGCAQKNKPGVYTKVCNYVSWIKQTIASN
Protein B1 has an unfolding free energy (Bos taurus, pH 5.8, 25 °C, GdnHCl, Fluorescence, MES 0.1 M) of 10.9 kcal/mol.

B2: Cytidine deaminase wild type, P19079 (protein)
chain: MNRQELITEALKARDMAYAPYSKFQVGAALLTKDGKVYRGCNIENAAYSMCNCAERTALFKAVSEGDTEFQMLAVAADTPGPVSPCGACRQVISELCTKDVIVVLTNLQGQIKEMTVEELLPGAFSSEDLHDERKL
In the case of B2, the unfolding free energy (Bacillus subtilis (strain 168), pH 7, 25 °C, GdnHCl, CD, potassium phosphate 20 mM, reversible: no) is reported as 2.5 kcal/mol.

B3: Spermadhesin-1 wild type, P29392 (protein)
chain: MKLSSVIPWALLLSTATVDSMDWLPRNTNCGGILKEESGVIATYYGPKTNCVWTIQMPPEYHVRVSIQYLQLNCNKESLEIIDGLPGSPVLGKICEGSLMDYRSSGSIMTVKYIREPEHPASFYEVLYFQDPQA
B3 showed a Tm (Bos taurus, pH 7, Thermal, DSC, sodium phosphate 10 mM, reversible: no) of 78.6 °C.

B4: FMN-dependent NADPH-azoreductase wild type, O07529 (protein)
chain: MNMLVINGTPRKHGRTRIAASYIAALYHTDLIDLSEFVLPVFNGEAEQSELLKVQELKQRVTKADAIVLLSPEYHSGMSGALKNALDFLSSEQFKYKPVALLAVAGGGKGGINALNNMRTVMRGVYANVIPKQLVLDPVHIDVENATVAENIKESIKELVEELSMFAKAGNPGV
With B4 the Tm (Bacillus subtilis (strain 168), pH 7.5, Thermal, CD, Tris-HCl 100 mM, reversible: No) was 86.5 °C.

B5: Beta-crystallin B2 wild type, P02522 (protein)
chain: MASDHQTQAGKPQPLNPKIIIFEQENFQGHSHELNGPCPNLKETGVEKAGSVLVQAGPWVGYEQANCKGEQFVFEKGEYPRWDSWTSSRRTDSLSSLRPIKVDSQEHKITLYENPNFTGKKMEVIDDDVPSFHAHGYQEKVSSVRVQSGTWVGYQYPGYRGLQYLLEKGDYKDSGDFGAPQPQVQSVRRIRDMQWHQRGAFHPSS
With B5 the Tm (Bos taurus, pH 7.2, Thermal, fluorescence, sodium phospahte 20 mM, NaCl, transition: 2) was 56.8 °C.

B6: Cytochrome b5 wild type, P00171 (protein)
chain: MAEESSKAVKYYTLEEIQKHNNSKSTWLILHYKVYDLTKFLEEHPGGEEVLREQAGGDATENFEDVGHSTDARELSKTFIIGELHPDDRSKITKPSESIITTIDSNPSWWTNWLIPAISALFVALIYHLYTSEN
For B6, the unfolding free energy (Bos taurus, pH 7, 10 °C, GdnHCl, Fluorescence, MOPS 30 mM, reversible: yes) was 2.77 kcal/mol, the “denaturant midpoint (higher = more stable)” value (shortened to “denaturant midpoint”) (Bos taurus, pH 7, 25 °C, GdmSCN, UV/visible spectrophotometer, MOPS 30mM) was 1.52 M and the denaturant m value [1] was 2.14 kcal/mol/M. The “denaturant midpoint” value [1] was 3.05 M, the unfolding free energy [1] was 6.57 kcal/mol and the denaturant m value [2] was 2.05 kcal/mol/M. For the same protein, the “denaturant midpoint” value [2] was 2.99 M, the unfolding free energy [2] was 6.09 kcal/mol and the denaturant m value [3] was 2.4 kcal/mol/M and 1.7 kcal/mol/M. The unfolding free energy [3] was 3.2 kcal/mol and 2.7 kcal/mol, the unfolding free energy (Bos taurus, pH 7, 25 °C, Thermal, DSC, sodium phosphate 50 mM, reversible: yes) was 5.98 kcal/mol and the Tm (Bos taurus, pH 7, Thermal, Fluorescence, potassium phosphate 50 mM, reversible: YES) was 85.5 °C. It also gave a Tm (Bos taurus, pH 7, Thermal, UV spectroscopy, Sodium phosphate 50 mM, reversible: Yes) of 79.4 °C, a Tm (Bos taurus, pH 7, Thermal, UV/visible spectrophotometer, Potassium phosphate 50mM) of 67.6 °C and a denaturant m value [4] of 0.93 kcal/mol/M. The unfolding free energy [4] was 6.57 kcal/mol, the “unfolding enthalpy (van 't Hoff)” value (Bos taurus, pH 7.2, Thermal, Absorbance, Phosphate 20 mM, reversible: yes) was 82.5 kcal/mol and 33.9 kcal/mol and the Tm [5] was 70.7 °C. The “heat capacity change of unfolding” value [5] was 0.13 kcal/mol/K.

B7: Thiosulfate sulfurtransferase wild type, P00586 (protein)
chain: MVHQVLYRALVSTKWLAESVRAGKVGPGLRVLDASWYSPGTREARKEYLERHVPGASFFDIEECRDKASPYEVMLPSEAGFADYVGSLGISNDTHVVVYDGDDLGSFYAPRVWWMFRVFGHRTVSVLNGGFRNWLKEGHPVTSEPSRPEPAIFKATLNRSLLKTYEQVLENLESKRFQLVDSRAQGRYLGTQPEPDAVGLDSGHIRGSVNMPFMNFLTEDGFEKSPEELRAMFEAKKVDLTKPLIATCRKGVTACHIALAAYLCGKPDVAIYDGSWFEWFHRAPPETWVSQGKGGKA
In the case of B7, the denaturant m value [6] is reported as 2.34 kcal/mol/M and the unfolding free energy [6] is reported as 3.39 kcal/mol.

B8: Pepsin A wild type, P00792 (protein)
chain: MSVVKIPLVKKKSLRQNLIENGKLKEFMRTHKYNLGSKYIREAATLVSEQPLQNYLDTEYFGTIGIGTPAQDFTVIFDTGSSNLWVPSIYCSSEACTNHNRFNPQDSSTYEATSETLSITYGTGSMTGILGYDTVQVGGISDTNQIFGLSETEPGSFLYYAPFDGILGLAYPSISSSGATPVFDNIWDQGLVSQDLFSVYLSSNEESGSVVIFGDIDSSYYSGSLNWVPVSVEGYWQITVDSITMNGESIACSDGCQAIVDTGTSLLAGPTTAISNIQSYIGASEDSSGEVVISCSSIDSLPDIVFTINGVQYPVPPSAYILQSNGICSSGFEGMDISTSSGDLWILGDVFIRQYFTVFDRGNNQIGLAPVA
B8 showed an unfolding free energy [7] of 6.36 kcal/mol and an unfolding free energy [8] of 2.72 kcal/mol.

B9: 3-isopropylmalate dehydrogenase wild type, P05645 (protein)
chain: MKKRIALLPGDGIGPEVLESATDVLKSVAERFNHEFEFEYGLIGGAAIDEHHNPLPEETVAACKNADAILLGAVGGPKWDQNPSELRPEKGLLSIRKQLDLFANLRPVKVFESLSDASPLKKEYIDNVDFVIVRELTGGLYFGQPSKRYVNTEGEQEAVDTLFYKRTEIERVIREGFKMAAARKGKVTSVDKANVLESSRLWREVAEDVAQEFPDVKLEHMLVDNAAMQLIYAPNQFDVVVTENMFGDILSDEASMLTGSLGMLPSASLSSSGLHLFEPVHGSAPDIAGKGMANPFAAILSAAMLLRTSFGLEEEAKAVEDAVNKVLASGKRTRDLARSEEFSSTQAITEEVKAAIMSENTISNV
Work on B9 yielded a Tm (Bacillus subtilis (strain 168), pH 7.6, Thermal, CD, Potassium phosphate 20 mM, reversible: yes) of 56 °C.

B10: Chemotaxis protein CheY wild type, P24072 (protein)
chain: MAHRILIVDDAAFMRMMIKDILVKNGFEVVAEAENGAQAVEKYKEHSPDLVTMDITMPEMDGITALKEIKQIDAQARIIMCSAMGQQSMVIDAIQAGAKDFIVKPFQADRVLEAINKTLN
For B10, the “heat capacity change of unfolding” value [9] was 2.34 kcal/mol/K, the unfolding free energy [9] was 3.14 kcal/mol and the Tm (Bacillus subtilis (strain 168), pH 6, Thermal, CD, sodium phosphate 50 mM, reversible: yes) was 54.9 °C.

B11: Chymosin wild type, P00794 (protein)
chain: MRCLVVLLAVFALSQGAEITRIPLYKGKSLRKALKEHGLLEDFLQKQQYGISSKYSGFGEVASVPLTNYLDSQYFGKIYLGTPPQEFTVLFDTGSSDFWVPSIYCKSNACKNHQRFDPRKSSTFQNLGKPLSIHYGTGSMQGILGYDTVTVSNIVDIQQTVGLSTQEPGDVFTYAEFDGILGMAYPSLASEYSIPVFDNMMNRHLVAQDLFSVYMDRNGQESMLTLGAIDPSYYTGSLHWVPVTVQQYWQFTVDSVTISGVVVACEGGCQAILDTGTSKLVGPSSDILNIQQAIGATQNQYGEFDIDCDNLSYMPTVVFEINGKMYPLTPSAYTSQDQGFCTSGFQSENHSQKWILGDVFIREYYSVFDRANNLVGLAKAI
With B11 the unfolding free energy [7] was 6.45 kcal/mol and the unfolding free energy [8] was 3.56 kcal/mol and 3.47 kcal/mol.

— FireProtDB
